For orientation: Km means the concentration of substrate that gives half-maximal velocity.

The values that follow come from ChEMBL document CHEMBL3860051, “Phosphorothioate analogs of P1,P3-di(nucleosid-5'-yl) triphosphates: Synthesis, assignment of the absolute configuration at P-atoms and P-stereodependent recognition by Fhit hydrolase” (Bioorg Med Chem, 2016).

The target in data set [1] is Bis(5'-adenosyl)-triphosphatase (Homo sapiens) (UniProt P49789). Nature of the data set: Activity at human Fhit expressed in Escherichia coli BL 21 assessed as enzyme Km by Michaelis-Menten equation relative to control.
Bis(5'-adenosyl)-triphosphatase (Homo sapiens), sequence (P49789 whole entry, looked up): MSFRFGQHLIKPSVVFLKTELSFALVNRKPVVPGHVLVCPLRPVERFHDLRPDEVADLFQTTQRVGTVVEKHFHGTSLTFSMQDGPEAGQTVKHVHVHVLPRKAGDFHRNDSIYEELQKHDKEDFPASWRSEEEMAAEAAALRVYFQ
The test system of data set [2] is Nc1ncnc2c1ncn2[C@@H]1O[C@H](CO[P@@](=O)(S)OP(=O)(O)O[P@](=O)(S)OC[C@H]2O[C@@H](n3cnc4c(N)ncnc43)[C@H](O)[C@@H]2O)[C@@H](O)[C@H]1O. Nature of the data set: (§1) Activity at human Fhit expressed in Escherichia coli BL21 assessed as enzyme Km by Michaelis-Menten equation.
Data set [3] has as its system Nc1ncnc2c1ncn2[C@@H]1O[C@H](CO[P@](=O)(S)OP(=O)(O)O[P@@](=O)(S)OC[C@H]2O[C@@H](n3cnc4c(N)ncnc43)[C@H](O)[C@@H]2O)[C@@H](O)[C@H]1O. The data set is described as §1.
Data set [4] concerns Nc1ncnc2c1ncn2[C@@H]1O[C@H](CO[P@](=O)(S)OP(=O)(O)O[P@](=O)(S)OC[C@H]2O[C@@H](n3cnc4c(N)ncnc43)[C@H](O)[C@@H]2O)[C@@H](O)[C@H]1O. The description is as §1.
For data set [5], the system named is Nc1ncnc2c1ncn2[C@@H]1O[C@H](CO[P@@](=O)(S)OP(=O)(O)O[P@](=O)(S)OC[C@H]2O[C@@H](n3cnc4c(N)ncnc43)[C@H](O)[C@@H]2O)[C@@H](O)[C@H]1O. The data set can be described thus: (§2) Activity at human Fhit expressed in Escherichia coli BL21 assessed as enzyme Kcat by Michaelis-Menten equation.
In data set [6] the test system is Nc1ncnc2c1ncn2[C@@H]1O[C@H](CO[P@](=O)(S)OP(=O)(O)O[P@@](=O)(S)OC[C@H]2O[C@@H](n3cnc4c(N)ncnc43)[C@H](O)[C@@H]2O)[C@@H](O)[C@H]1O. The data set is described as §2.
Data set [7] concerns Nc1ncnc2c1ncn2[C@@H]1O[C@H](CO[P@](=O)(S)OP(=O)(O)O[P@](=O)(S)OC[C@H]2O[C@@H](n3cnc4c(N)ncnc43)[C@H](O)[C@@H]2O)[C@@H](O)[C@H]1O. The data set is described as §2.
In data set [8] the test system is Nc1ncnc2c1ncn2[C@@H]1O[C@H](CO[P@@](=O)(S)OP(=O)(O)O[P@](=O)(S)OC[C@H]2O[C@@H](n3cnc4c(N)ncnc43)[C@H](O)[C@@H]2O)[C@@H](O)[C@H]1O. Nature of the data set: (§3) Activity at human Fhit expressed in Escherichia coli BL21 assessed as ratio of enzyme Kcat to Km by Michaelis-Menten equation.
Data set [9] relates to Nc1ncnc2c1ncn2[C@@H]1O[C@H](CO[P@](=O)(S)OP(=O)(O)O[P@@](=O)(S)OC[C@H]2O[C@@H](n3cnc4c(N)ncnc43)[C@H](O)[C@@H]2O)[C@@H](O)[C@H]1O. The description is as §3.
Data set [10] concerns Nc1ncnc2c1ncn2[C@@H]1O[C@H](CO[P@](=O)(S)OP(=O)(O)O[P@](=O)(S)OC[C@H]2O[C@@H](n3cnc4c(N)ncnc43)[C@H](O)[C@@H]2O)[C@@H](O)[C@H]1O. The description is as §3.
Data set [11] deals with Nc1ncnc2c1ncn2[C@@H]1O[C@H](COP(=O)(O)OP(=O)(O)OP(=O)(O)OC[C@H]2O[C@@H](n3cnc4c(N)ncnc43)[C@H](O)[C@@H]2O)[C@@H](O)[C@H]1O. The data set can be described thus: Activity at human Fhit expressed in Escherichia coli SG100 assessed as enzyme Kcat by Michaelis-Menten equation.
The test system is the same in data set [12]. Nature of the data set: (§4) Activity at human Fhit expressed in Escherichia coli SG100 assessed as ratio of enzyme Kcat to Km by Michaelis-Menten equation.
For data set [13], the system named is Nc1ncnc2c1ncn2[C@@H]1O[C@H](CO[P@](=O)(S)OP(=O)(O)OP(=O)(O)OCc2cccc([N+](=O)[O-])c2)[C@@H](O)[C@H]1O. The data set is described as §4.
Data set [14] deals with Nc1ncnc2c1ncn2[C@@H]1O[C@H](COP(=O)(O)OP(=O)(O)OP(=O)(O)OC[C@H]2O[C@@H](n3cnc4c(N)ncnc43)[C@H](O)[C@@H]2O)[C@@H](O)[C@H]1O. The data set can be described thus: (§5) Activity at human Fhit expressed in Escherichia coli SG100 assessed as enzyme Km by Michaelis-Menten equation.
The subject of data set [15] is Nc1ncnc2c1ncn2[C@@H]1O[C@H](CO[P@](=O)(S)OP(=O)(O)OP(=O)(O)OCc2cccc([N+](=O)[O-])c2)[C@@H](O)[C@H]1O. The data set is described as §5.
The test system is the same in data set [16]. Nature of the data set: Activity at human Fhit expressed in Escherichia coli SG100 assessed as enzyme Vmax by Michaelis-Menten equation.

Bis(5'-adenosyl)-triphosphatase (Homo sapiens), P49789, sequence (P49789 whole entry): as the sequence (P49789 whole entry, looked up) above

Turning to `Nc1ncnc2c1ncn2[C@@H]1O[C@H](CO[P@@](=O)(S)OP(=O)(O)O[P@](=O)(S)OC[C@H]2O[C@@H](n3cnc4c(N)ncnc43)[C@H](O)[C@@H]2O)[C@@H](O)[C@H]1O`, the fold change (FC) in data set [1] was found to be 2.8.

As to “Bis(5'-adenosyl)-triphosphatase (Homo sapiens), P49789”, the Km is 5.32 µM in data set [2]; 3.54 µM in [3]; 1.25 µM in [4]; 1.9 µM in data set [14]; 2.8 µM in data set [15]. Moreover, the kcat in data set [5] stood at 8.4 ×10⁻⁴ /s; in data set [6], 4.8 ×10⁻⁴ /s; in [7], 29.9 ×10⁻⁴ /s; in data set [11] it was 73 s⁻¹. For the same molecule, the kcat/Km amounted to 1.7 ×10² /M/s in data set [8]; 1.4 ×10² /M/s in [9]; 24 ×10² /M/s in [10]; 3.8 ×10⁷ /M/s in data set [12]; 0.125 ×10⁶ /s/M in data set [13]. The Vmax (10'-6mol/min/ug) in data set [16] was found to be 0.35.

With `Nc1ncnc2c1ncn2[C@@H]1O[C@H](CO[P@](=O)(S)OP(=O)(O)O[P@@](=O)(S)OC[C@H]2O[C@@H](n3cnc4c(N)ncnc43)[C@H](O)[C@@H]2O)[C@@H](O)[C@H]1O`, in data set [1], the fold change (FC) came out at 2.8.

With `Nc1ncnc2c1ncn2[C@@H]1O[C@H](CO[P@](=O)(S)OP(=O)(O)O[P@](=O)(S)OC[C@H]2O[C@@H](n3cnc4c(N)ncnc43)[C@H](O)[C@@H]2O)[C@@H](O)[C@H]1O`, in data set [1], the fold change (FC) was determined as 2.8.
